Molecular target: T1, interaction between FVIII light chain and LRP (Homo sapiens, UniProt P00451)
T1 construct: from tissue; host or cells: FVIII light chain from plasma; LRP from placenta
T1 sequence (P00451 1668-2351 limits assumed): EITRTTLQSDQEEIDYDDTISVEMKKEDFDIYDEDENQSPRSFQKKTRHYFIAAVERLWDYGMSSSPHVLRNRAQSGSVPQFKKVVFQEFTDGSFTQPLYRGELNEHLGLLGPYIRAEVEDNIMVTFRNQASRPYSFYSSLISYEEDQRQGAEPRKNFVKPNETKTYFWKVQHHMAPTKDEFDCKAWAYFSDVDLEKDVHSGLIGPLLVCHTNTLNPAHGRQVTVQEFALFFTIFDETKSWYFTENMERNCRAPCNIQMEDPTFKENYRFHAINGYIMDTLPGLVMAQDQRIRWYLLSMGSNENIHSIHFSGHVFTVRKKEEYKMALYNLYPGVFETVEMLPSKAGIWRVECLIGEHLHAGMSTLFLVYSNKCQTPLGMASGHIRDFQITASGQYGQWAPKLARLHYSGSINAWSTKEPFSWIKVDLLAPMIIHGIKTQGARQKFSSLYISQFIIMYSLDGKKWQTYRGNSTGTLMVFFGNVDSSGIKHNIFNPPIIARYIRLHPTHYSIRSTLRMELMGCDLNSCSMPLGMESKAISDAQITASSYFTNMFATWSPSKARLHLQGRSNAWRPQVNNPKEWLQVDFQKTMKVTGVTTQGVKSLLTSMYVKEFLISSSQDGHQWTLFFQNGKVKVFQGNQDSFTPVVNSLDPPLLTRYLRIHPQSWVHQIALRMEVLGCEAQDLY
Assay: SPR competition: FVIII light chain binding to immobilized LRP
Conditions: FVIII light chain 50 nM; scFv 20-500 nM
Procedure: FIG. 4. Effect of scFv antibody fragments on the interaction between FVIII light chain and LRP. A, FVIII light chain (LCh) (25 nM) was incubated with immobilized LRP cluster II (1 pmol/well) in a volume of 50 μl in 150 mM NaCl, 5 mM CaCl2, 1% (w/v) HSA, 0.1% Tween® 20, and 50 mM Tris (pH 7.4) in the presence of various concentrations (0-100 nM) of scFv KM41 (closed circles) or scFv KM36 (open circles) for 2 h at 37° C. After washing with the same buffer, bound FVIII light chain was quantified by incubation with peroxidase-conjugated anti-FVIII antibody CLB-CAg 12 for 15 min at 37° C. Residual binding is expressed as the percentage of binding in the absence of competitor and is corrected for nonspecific binding (less than 5% relative to binding to LRP cluster II-immobilized wells). […] Binding was assessed in the absence (curve 1) or in the presence of increasing concentrations of scFv KM41 (20, 60, 300, 500 nM, curves 2-5, respectively). […]
The kinetics of protein interactions was determined by surface plasmon resonance (SPR) analysis, employing a BIAcore™2000 biosensor system (Biacore AS, Uppsala, Sweden). […] Association of analyte was assessed in 150 mM NaCl, 2 mM CaCl2, 0.005% (v/v) Tween® 20, and 20 mM Hepes (pH 7.4) for 2 min, at a flow rate of 20 μl/min at 25° C. […] Equilibrium dissociation constants (kd) were calculated from the ratio koff/kon. […]

- Effect on association of FVIII light chain with immobilized LRP: only partially inhibits
B1: scFv KM41: scFv antibody fragment directed against FVIII region Arg^1803-Lys^1818 (protein)
scFv: QVQLLQSAADVKKPGASVKVSCTASGYIFTSYDIDWVRQATGQGLEWMGWMNPNSGNAGFAQKFKGRLTLTRDTSTSTAYMELRRLESEDTAVYYCARSTPHSYSGSGLPPTSDSWGQGTLVTVSSGGGGSGGGGSGGGGSEIVLTQSPGTLSLSPGERATLSCRASQSVSSSFLGWYQQKPGQAPRLLIYGASSRATGIPDRFSGSGSGTDFTLTISRLEPEDFAVYYCQQYGISPLTFGGGTKLEIKRAAAEQKLISEEDLNGAAHHHHHH

From US8586538B2, “Method of treating a patient suffering from a bleeding disorder comprising administering an antibody against the A3-C1 of FVIII” (Stichting Sanquin Bloedvoorziening, priority 2002, dated 2013)
